In paper PMC8140153, “Fluorescence Fluctuation Spectroscopy enables quantification of potassium channel subunit dynamics and stoichiometry” (Scientific Reports, 2021):

Key:
[1] = target: T1, KCNQ1-mCherry (human KCNQ1, C-terminally mCherry-tagged) (human, UniProt P51787 1-676); assay: Number and Brightness (N&B) analysis of TIRF image sequences; living CHO cells co-transfected with KCNE2-mEGFP and KCNQ1-mCherry; cells with fast micro-diffusion, E2f(Q1) (Dmicro > 0.02 µm^2 s^-1); 37 °C, 5% CO2; GAP-mEGFP as monomeric reference; conditions: partners not purified
T1 construct: KCNQ1 (Kv7.1) alpha subunit, human; cDNA in a CMV-based expression construct; also called Q1 in E2(Q1); source: CHO cells, co-transfected (Lipofectamine 3000), in living cells; not shown: mCherry, C-terminal, kept
T1 sequence (looked up): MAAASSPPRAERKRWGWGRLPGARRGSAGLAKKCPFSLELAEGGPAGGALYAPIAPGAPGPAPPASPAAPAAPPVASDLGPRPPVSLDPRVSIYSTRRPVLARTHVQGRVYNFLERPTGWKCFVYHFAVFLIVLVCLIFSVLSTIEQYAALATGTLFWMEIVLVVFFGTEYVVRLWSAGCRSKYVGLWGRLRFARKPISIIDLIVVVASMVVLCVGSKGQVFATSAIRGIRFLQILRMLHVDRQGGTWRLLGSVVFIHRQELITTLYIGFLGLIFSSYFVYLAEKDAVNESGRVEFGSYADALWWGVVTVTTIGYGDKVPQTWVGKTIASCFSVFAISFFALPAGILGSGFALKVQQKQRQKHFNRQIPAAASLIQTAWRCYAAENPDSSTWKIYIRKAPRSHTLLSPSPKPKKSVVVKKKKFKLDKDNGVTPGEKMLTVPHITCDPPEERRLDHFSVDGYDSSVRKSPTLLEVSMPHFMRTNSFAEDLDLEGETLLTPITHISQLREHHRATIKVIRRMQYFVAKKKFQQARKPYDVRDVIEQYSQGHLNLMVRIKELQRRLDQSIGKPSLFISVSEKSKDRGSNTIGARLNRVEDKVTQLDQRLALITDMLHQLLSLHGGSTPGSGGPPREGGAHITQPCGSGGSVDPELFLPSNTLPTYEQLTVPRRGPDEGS

[2] = target: the molecule itself; assay: Number and Brightness (N&B) analysis of TIRF image sequences; living CHO cells transfected with one mEGFP-tagged subunit alone; plasma membrane, 37 °C, 5% CO2; GAP-mEGFP as monomeric reference; oligomerization state corrected for protein maturation and misfolding

B1: KCNE2-mEGFP (human KCNE2, C-terminally mEGFP-tagged) (natural protein, UniProt Q9Y6J6 1-123, looked up)
chain: MSTLSNFTQTLEDVFRRIFITYMDNWRQNTTAEQEALQAKVDAENFYYVILYLMVMIGMFSFIIVAILVSTVKSKRREHSNDPYHQYIVEDWQEKYKSQILNLEESKATIHENIGAAGFKMSP
notes: KCNE2, human, single transmembrane segment beta subunit; cDNA in a CMV-based expression construct; also called KCNE2 subunit; E2(Q1), E2f(Q1), E2s(Q1) when co-expressed with KCNQ1-mCherry; source: CHO cells, transfected (Lipofectamine 3000), in living cells; not shown: mEGFP, C-terminal, kept
stoichiometry N [1]: 4 E2 subunits per KCNQ1-KCNE2 complex
stoichiometry N [2]: 2
